# Experimental data taken from patent US7422862B2, “Methods for identifying modulators of apoptosis” (The Burnham Institute, priority 2001, dated 2008).
# No end group written: not given here.
# Legend:
# Bcl-XL = Bcl-XL (Homo sapiens, UniProt Q07817); assay: Fluorescence polarization assay, Bcl-XL specificity control; format: binding
# endogenous Bax protein = assay: Subcellular fractionation and immunoblot of endogenous Bax after STS; format: cell-based; conditions: Cos7 cells, untagged peptides, STS
# Protocol: (A-B) Humanin peptide prevents STS-induced Bax translocation in vivo. Cos-7 cells were first transfected with GFP-Bax plasmids. After 24 hrs, untagged wild-type or C8P mutant Humanin peptides were introduced into cells using ChariotTM reagent, and 2 h later cells were treated with 1 μM STS. After 4 h, the percentage of cells with translocated Bax was determined (mean±SD; n=3) by confocal microscopy (A) and representative photomicrographs (B). (C) Wild-type or C8P mutant Humanin peptides were introduced into Cos7 cells using ChariotTM reagent. Cytosolic (C) and mitochondria-containing (M) fractions were isolated by differential centrifugation 23 and analyzed by immunoblotting using anti-Bax (top), Hsp60 (middle) (mitochondrial marker), or Tubulin (bottom) (cytosol marker) antibodies. (D) HN or mutant control double-strand siRNAs were transfected into SF268 cells. After 48 h, cells were cultured without (Control) or with 0.1 uM STS. After 24 hr, cells were fractionated and analyzed by immunoblotting as above. […] After 3 h at 30° C., mitochondria were centrifuged and the resulting pellets (P) and supernatants (S) were analyzed by immunoblotting using anti-Cytochrome c (top), Hsp60 (middle), and Bax (bottom) antibodies. […]
# These findings were also confirmed by subcellular fractionation, where cytosol and mitochondria-enriched heavy membrane preparations were prepared from Cos7 cells transduced with untagged Humanin or Humanin(C8P) peptides, and the relative amounts of endogenous Bax protein in these two fractions were measured by immunoblot analysis of samples normalized for cell-equivalents. […] Differences in the relative potency of Humanin at blocking Bax translocation as measured by microscopy (FIG. 7A) versus cell fractionation methods (FIG. 7C) can be explained by differences in the sensitivity of the assays, or could possibly indicate that even in cells where some Bax translocation has occurred, less of the total Bax protein associated with mitochondria. […]
# purified recombinant Bax [1] = target: T1, purified recombinant Bax (Homo sapiens, UniProt Q07812); assay: Isolated mitochondria: Bax association and cytochrome c release assay; format: biochemical; conditions: 100 μM peptide preincubated with Bax, HCT116 mitochondria
# T1 sequence (Q07812 whole entry): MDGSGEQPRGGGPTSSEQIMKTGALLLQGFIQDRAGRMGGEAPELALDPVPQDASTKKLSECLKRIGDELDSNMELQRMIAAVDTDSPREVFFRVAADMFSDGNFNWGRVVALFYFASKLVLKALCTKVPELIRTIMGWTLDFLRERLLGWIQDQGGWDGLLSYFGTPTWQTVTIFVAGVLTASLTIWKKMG
# Protocol: (A-B) Humanin peptide prevents STS-induced Bax translocation in vivo. Cos-7 cells were first transfected with GFP-Bax plasmids. After 24 hrs, untagged wild-type or C8P mutant Humanin peptides were introduced into cells using ChariotTM reagent, and 2 h later cells were treated with 1 μM STS. After 4 h, the percentage of cells with translocated Bax was determined (mean±SD; n=3) by confocal microscopy (A) and representative photomicrographs (B). (C) Wild-type or C8P mutant Humanin peptides were introduced into Cos7 cells using ChariotTM reagent. Cytosolic (C) and mitochondria-containing (M) fractions were isolated by differential centrifugation 23 and analyzed by immunoblotting using anti-Bax (top), Hsp60 (middle) (mitochondrial marker), or Tubulin (bottom) (cytosol marker) antibodies. (D) HN or mutant control double-strand siRNAs were transfected into SF268 cells. After 48 h, cells were cultured without (Control) or with 0.1 uM STS. After 24 hr, cells were fractionated and analyzed by immunoblotting as above. (E) Isolated mitochondria were mixed with 400 ng Bax protein, with or without preincubating Bax with 100 uM Humanin or Humanin(C8P) peptides for 10 min. After 3 h at 30° C., mitochondria were centrifuged and the resulting pellets (P) and supernatants (S) were analyzed by immunoblotting using anti-Cytochrome c (top), Hsp60 (middle), and Bax (bottom) antibodies. (F) HN peptide enforces the interaction of Bax TM domain with Bax.TM. Lysates from HEK293T cells expressing Flag-Bax.TM were pretreated with or without Humanin or Humanin(C8P) peptides. Lysates were then mixed in vitro with lysates of HEK293T cells expressing GFP-TM(Bax). Immunoprecipitations were performed with anti-Flag antibody, analyzing lysates and immunoprecipitates (IP) by immunoblotting using monoclonal anti-GFP antibody.
# To determine whether Humanin can act directly on Bax, the effects of Humanin on isolated mitochondria were tested. Addition of recombinant purified Bax protein to mitochondria in vitro induces cytochrome c release (Jurgensmeier et al., Proc. Natl. Acad. Sci. USA 95:4997-5002 (1998)). […] Therefore Humanin can directly suppress Bax targeting to mitochondria, without requirement for intact cells.
# Cytochrome c release assays were performed as follows. Mitochondria were isolated from HCT116 cells by differential centrifugation as described above. Purified recombinant human Bax protein (400 ng for each sample) was pre-incubated with or without 100 μM synthetic Humanin peptide or mutant Humanin (C8P) peptide for 10 min at 4° C. The untreated or peptide pre-treated Baxprotein samples were then mixed with equal amount of HCT116 mitochondria (in a volume of 40 μl) at 30° C. for 3 hours. […]
# BaxΔTM = target: T2, BaxΔTM (Homo sapiens, UniProt Q07812); assay: Co-immunoprecipitation of BaxΔTM with GFP-TM(Bax); format: binding; conditions: lysates pre-incubated with peptide
# T2 construct: a C-terminally truncated Bax protein (residues 1-169) (BaxΔTM); expressed in transfected cells; host or cells: HEK293T (lysates mixed in vitro)
# T2 sequence (Q07812 1-169, stated change not applied): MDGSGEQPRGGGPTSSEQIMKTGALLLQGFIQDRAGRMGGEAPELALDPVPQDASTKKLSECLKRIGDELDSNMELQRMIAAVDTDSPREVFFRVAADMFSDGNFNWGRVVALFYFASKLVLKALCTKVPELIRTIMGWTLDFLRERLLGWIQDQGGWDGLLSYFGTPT
# T2 sequence (Q07812 170-192 partner limits assumed): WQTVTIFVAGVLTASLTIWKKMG
# Protocol: (§1) (A-B) Humanin peptide prevents STS-induced Bax translocation in vivo. Cos-7 cells were first transfected with GFP-Bax plasmids. After 24 hrs, untagged wild-type or C8P mutant Humanin peptides were introduced into cells using ChariotTM reagent, and 2 h later cells were treated with 1 μM STS. After 4 h, the percentage of cells with translocated Bax was determined (mean±SD; n=3) by confocal microscopy (A) and representative photomicrographs (B). (C) Wild-type or C8P mutant Humanin peptides were introduced into Cos7 cells using ChariotTM reagent. Cytosolic (C) and mitochondria-containing (M) fractions were isolated by differential centrifugation 23 and analyzed by immunoblotting using anti-Bax (top), Hsp60 (middle) (mitochondrial marker), or Tubulin (bottom) (cytosol marker) antibodies. (D) HN or mutant control double-strand siRNAs were transfected into SF268 cells. After 48 h, cells were cultured without (Control) or with 0.1 uM STS. After 24 hr, cells were fractionated and analyzed by immunoblotting as above. (E) Isolated mitochondria were mixed with 400 ng Bax protein, with or without preincubating Bax with 100 uM Humanin or Humanin(C8P) peptides for 10 min. After 3 h at 30° C., mitochondria were centrifuged and the resulting pellets (P) and supernatants (S) were analyzed by immunoblotting using anti-Cytochrome c (top), Hsp60 (middle), and Bax (bottom) antibodies. […]
# Bax = assay: Bax-induced lethality in yeast; format: cell-based, S. cerevisiae; conditions: TAD-fusion polypeptide, galactose-induced Bax
# GFP-Bax = target: T3, GFP-Bax (Homo sapiens, UniProt Q07812); assay: STS-induced GFP-Bax translocation to mitochondria in Cos7 cells (confocal microscopy); format: cell-based; conditions: peptide transduced with Chariot, 1 μM STS
# T3 construct: expressed in transfected cells; host or cells: Cos-7
# T3 sequence (Q07812 whole entry): as the sequence (Q07812 whole entry) above
# Protocol: as §1
# purified recombinant Bax [2] = target: T1, purified recombinant Bax; assay: Fluorescence polarization assay (FPA) of rhodamine-labelled peptide binding to Bax; set-up: full-length Bax protein was produced in bacteria and purified; made in house; host or cells: E. coli BL21; conditions: rhodamine-labelled control peptides
# Protocol: (C) The affinity (Kd) of Bax/HN interaction was measured by fluorescence polarization assay, using various concentrations of purified recombinant Bax and 40 nM rhodamine-conjugated HN peptide. Control peptide from CD40 is also shown (mean +Std Dev; n=3).
# In this example, the in vitro binding assay is a fluorescence polarization assay (FPA). For this experiment, full-length Bax protein was produced in bacteria and purified. Various concentrations of Bax protein were incubated with 40 nM of rhodamine-conjugated synthetic purified Humanin peptide. The extent of peptide binding was then monitored by measuring polarization of monochromatic light passed through the sample, where peptide binding to the bulkier protein slows the rate of peptide tumbling in solution, enhancing the polarization effect.
# Fluorescence Polarization Assays were performed as follows. Recombinant Bax protein was isolated from E. coli BL21 harboring pTYB1-Bax essentially as described (Suzuki et al., Cell 103:645-654 (2000)). For fluorescence polarization assays (FPA), various concentrations of Bax protein were incubated with 40 nM of rhodamine-conjugated synthetic purified Humanin peptide dissolved in water for 30 minutes in dark. Fluorescence polarization was measured using an AnalystTM AD Assay Detection System (LJL Biosystem, Sunnyvale, Calif.).
# Sequence of Bcl-XL (Q07817 whole entry, species assumed): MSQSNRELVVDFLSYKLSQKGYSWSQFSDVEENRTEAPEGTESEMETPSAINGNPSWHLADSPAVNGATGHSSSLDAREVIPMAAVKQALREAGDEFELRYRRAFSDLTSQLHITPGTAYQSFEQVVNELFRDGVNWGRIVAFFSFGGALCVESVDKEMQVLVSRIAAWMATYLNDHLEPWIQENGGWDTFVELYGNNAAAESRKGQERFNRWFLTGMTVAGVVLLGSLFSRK
molecule,measurement,setting,value
CC[C@H](C)[C@H](NC(=O)[C@H](CCC(=O)O)NC(=O)[C@H](CO)NC(=O)[C@@H](NC(=O)[C@H](CC(C)C)NC(=O)[C@H](CC(C)C)NC(=O)[C@H](CC(C)C)NC(=O)[C@H](CC(C)C)NC(=O)[C@H](CS)NC(=O)[C@H](CO)NC(=O)[C@H](Cc1ccccc1)NC(=O)CNC(=O)[C@H](CCCNC(=N)N)NC(=O)[C@@H]1CCCN1C(=O)[C@H](C)NC(=O)[C@H](CCSC)NC(=O)CCCCCNC(=O)c1ccccc1-c1c2ccc(=[N+](CC)CC)cc-2oc2cc(N(CC)CC)ccc12)[C@@H](C)O)C(=O)N[C@@H](CC(=O)O)C(=O)N[C@@H](CC(C)C)C(=O)N1CCC[C@H]1C(=O)N[C@H](C(=O)N[C@@H](CCCCN)C(=O)N[C@@H](CCCNC(=N)N)C(=O)N[C@@H](CCCNC(=N)N)C(=O)N[C@@H](C)C(N)=O)C(C)C [rhodamine-HN],binding to Bcl-XL in fluorescence polarization assay,Bcl-XL,did not bind
"Humanin(C8P): synthetic Humanin peptide (or TAD-fusion in yeast) with C8P mutation, non-Bax-binding (MAPRGFSPLLLLTSEIDLPVKRRA; UniProt Q8IVG9 1-24, looked up, variant C8P)",Bax translocation by subcellular fractionation,endogenous Bax protein,no effect
same,Bax association with mitochondria,purified recombinant Bax [1],did not interfere
same,cytochrome c release,purified recombinant Bax [1],did not interfere
same,interaction of BaxΔTM with GFP-TM,BaxΔTM,did not promote
same,rescue of yeast from Bax-induced lethality,Bax,did not rescue
same,suppression of GFP-Bax translocation,GFP-Bax,not
"rhodamine-CD40: rhodamine-labelled control peptide from CD40 (residue 250P to 266G) (PVQETLHGCQPVTQEDG; also: rhodamine label; UniProt P25942 250-266, looked up, fragment)",interaction with Bax in fluorescence polarization assay,purified recombinant Bax [2],did not display interactions
